Conditions: Nicotiana tabacum; pH 7.2; 4 °C; Urea; Fluorescence; BES; reversible: yes; whole UniProt chain shown

B1: Salicylic acid-binding protein 2 wild type, Q6RYA0 (protein)
chain: MKEGKHFVLVHGACHGGWSWYKLKPLLEAAGHKVTALDLAASGTDLRKIEELRTLYDYTLPLMELMESLSADEKVILVGHSLGGMNLGLAMEKYPQKIYAAVFLAAFMPDSVHNSSFVLEQYNERTPAENWLDTQFLPYGSPEEPLTSMFFGPKFLAHKLYQLCSPEDLALASSLVRPSSLFMEDLSKAKYFTDERFGSVKRVYIVCTEDKGIPEEFQRWQIDNIGVTEAIEIKGADHMAMLCEPQKLCASLLEIAHKYN
  denaturant midpoint (higher = more stable): 2.2 M

— FireProtDB (doi:10.1021/acs.biochem.7b00571)
